This is an account of results in the supplement of paper PMC10065799, “High-throughput profiling of sequence recognition by tyrosine kinases and SH2 domains using bacterial peptide display” (eLife, 2023).

Series [1] deals with Fyn (UniProt P06241). Briefly: phosphorylation enrichment, bacterial display (enrichment ratio); higher = better substrate or ligand; peptides without Tyr show the background.
Series [2] has as its system Fer (mouse). Described as above.
Series [3] has as its target Fes (UniProt P07332). The description is as above.
Series [4] has as its target EPHB1 (UniProt P54762). The series is described as above.
Series [5] has as its target Hck (UniProt P08631). Described as above.
Series [6] has as its target FGFR3 (UniProt P22607). Described as above.
The subject of series [7] is c-Abl (mouse). The description is as above.
In series [8] the target is FGFR1 (UniProt P11362). The series is described as above.
In series [9] the target is Jak2 (UniProt O60674). The series is described as above.
Series [10] deals with AncSZ. The series is described as above.
In series [11] the test system is c-Src. Described as above.
Series [12] has as its target MERTK (UniProt Q12866). Described as above.
Series [13] deals with EPHB2 (UniProt P29323). The description is as above.
Series [14] deals with c-Src SH2. Briefly: SH2 binding enrichment of the phosphorylated peptide, bacterial display (enrichment ratio); higher = better substrate or ligand; peptides without Tyr show the background.
In series [15] the target is Grb2 SH2 (UniProt P62993). The description is as above.
Series [16] has as its target SHP2-C SH2. The series is described as above.
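Throughout, for SH2 binding enrichment of the phosphorylated peptide, bacterial display: peptide library displayed on the E. coli surface as eCPX fusions, selected cells deep-sequenced, score is each peptide's frequency after selection divided by its frequency in the input.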
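Throughout, for phosphorylation enrichment, bacterial display: 11-residue human phosphosite peptides and single-mutation variants displayed on the E. coli surface, counted by deep sequencing, each peptide's frequency after selection divided by its frequency in the unselected input library; frequency after pTyr selection over input frequency; kinase dosed for 20-30% of maximal phosphorylation in three min.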

EPHB2, sequence (P29323 whole entry, looked up): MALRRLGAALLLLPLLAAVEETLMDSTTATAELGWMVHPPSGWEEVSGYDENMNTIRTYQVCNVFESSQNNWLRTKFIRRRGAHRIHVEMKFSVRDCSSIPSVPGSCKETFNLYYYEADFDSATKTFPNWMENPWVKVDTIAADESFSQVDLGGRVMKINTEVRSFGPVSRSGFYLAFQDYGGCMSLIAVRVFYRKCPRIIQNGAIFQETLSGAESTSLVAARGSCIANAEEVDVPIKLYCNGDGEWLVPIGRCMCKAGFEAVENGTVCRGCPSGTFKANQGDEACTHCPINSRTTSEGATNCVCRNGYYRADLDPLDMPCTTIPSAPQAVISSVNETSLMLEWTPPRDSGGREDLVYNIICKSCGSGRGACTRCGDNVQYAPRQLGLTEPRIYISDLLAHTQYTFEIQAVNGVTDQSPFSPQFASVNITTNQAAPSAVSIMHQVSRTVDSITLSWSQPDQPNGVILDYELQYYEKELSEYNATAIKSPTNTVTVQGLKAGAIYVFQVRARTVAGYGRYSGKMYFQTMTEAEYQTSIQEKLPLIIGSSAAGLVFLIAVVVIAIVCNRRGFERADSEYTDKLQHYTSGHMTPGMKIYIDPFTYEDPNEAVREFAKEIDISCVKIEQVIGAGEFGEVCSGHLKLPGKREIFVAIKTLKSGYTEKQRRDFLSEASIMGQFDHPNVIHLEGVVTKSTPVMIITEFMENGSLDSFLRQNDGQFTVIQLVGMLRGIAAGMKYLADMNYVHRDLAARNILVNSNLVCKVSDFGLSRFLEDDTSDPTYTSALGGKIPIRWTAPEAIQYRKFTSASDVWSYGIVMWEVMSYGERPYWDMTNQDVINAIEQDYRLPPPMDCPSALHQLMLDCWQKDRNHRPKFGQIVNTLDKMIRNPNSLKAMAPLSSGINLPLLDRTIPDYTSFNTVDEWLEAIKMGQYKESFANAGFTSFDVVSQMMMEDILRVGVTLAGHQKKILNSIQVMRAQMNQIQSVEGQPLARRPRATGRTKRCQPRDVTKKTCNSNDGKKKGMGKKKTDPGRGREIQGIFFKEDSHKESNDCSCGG
FGFR3, sequence (P22607 whole entry, looked up): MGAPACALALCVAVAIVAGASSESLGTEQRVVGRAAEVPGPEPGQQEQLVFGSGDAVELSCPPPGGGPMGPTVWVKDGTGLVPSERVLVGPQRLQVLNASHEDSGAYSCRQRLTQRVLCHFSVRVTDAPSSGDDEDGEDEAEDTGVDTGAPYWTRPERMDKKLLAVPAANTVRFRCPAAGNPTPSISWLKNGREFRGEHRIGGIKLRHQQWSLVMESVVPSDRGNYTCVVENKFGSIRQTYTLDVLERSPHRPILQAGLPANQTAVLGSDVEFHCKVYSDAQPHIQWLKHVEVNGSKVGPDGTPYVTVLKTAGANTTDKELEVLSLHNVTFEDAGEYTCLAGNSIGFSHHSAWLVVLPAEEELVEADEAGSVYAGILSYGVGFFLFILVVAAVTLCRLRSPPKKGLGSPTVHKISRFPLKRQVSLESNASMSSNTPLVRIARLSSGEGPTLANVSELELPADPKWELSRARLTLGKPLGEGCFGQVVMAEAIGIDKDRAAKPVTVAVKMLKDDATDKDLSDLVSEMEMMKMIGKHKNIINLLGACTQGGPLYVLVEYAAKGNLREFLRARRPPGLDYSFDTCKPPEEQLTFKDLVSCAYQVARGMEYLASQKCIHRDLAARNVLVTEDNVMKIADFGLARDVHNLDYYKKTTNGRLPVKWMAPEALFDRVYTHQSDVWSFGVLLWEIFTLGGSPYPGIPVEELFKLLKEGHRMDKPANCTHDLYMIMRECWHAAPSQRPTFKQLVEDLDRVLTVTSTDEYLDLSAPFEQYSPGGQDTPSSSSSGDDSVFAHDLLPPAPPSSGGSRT
Fes, sequence (P07332 whole entry, looked up): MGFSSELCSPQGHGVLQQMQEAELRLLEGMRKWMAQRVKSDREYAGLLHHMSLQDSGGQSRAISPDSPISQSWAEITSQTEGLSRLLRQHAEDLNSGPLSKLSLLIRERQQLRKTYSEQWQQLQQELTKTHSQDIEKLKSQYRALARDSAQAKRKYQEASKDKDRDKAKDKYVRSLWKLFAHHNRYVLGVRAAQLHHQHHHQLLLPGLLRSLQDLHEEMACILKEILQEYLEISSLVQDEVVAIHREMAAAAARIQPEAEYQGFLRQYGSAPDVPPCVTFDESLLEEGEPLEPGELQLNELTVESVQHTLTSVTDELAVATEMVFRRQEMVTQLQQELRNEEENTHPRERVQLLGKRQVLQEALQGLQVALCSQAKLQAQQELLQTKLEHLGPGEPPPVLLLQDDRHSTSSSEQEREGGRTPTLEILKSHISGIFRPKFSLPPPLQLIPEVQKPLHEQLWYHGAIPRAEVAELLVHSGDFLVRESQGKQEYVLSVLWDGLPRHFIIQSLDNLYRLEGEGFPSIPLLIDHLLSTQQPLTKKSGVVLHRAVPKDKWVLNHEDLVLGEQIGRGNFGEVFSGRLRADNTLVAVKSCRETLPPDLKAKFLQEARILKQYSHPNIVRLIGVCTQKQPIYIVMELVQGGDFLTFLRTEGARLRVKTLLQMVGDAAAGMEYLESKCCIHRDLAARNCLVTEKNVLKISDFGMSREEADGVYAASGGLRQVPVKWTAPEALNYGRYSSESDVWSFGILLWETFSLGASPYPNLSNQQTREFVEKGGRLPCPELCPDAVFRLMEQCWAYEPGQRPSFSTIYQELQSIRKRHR
EPHB1, sequence (P54762 whole entry, looked up): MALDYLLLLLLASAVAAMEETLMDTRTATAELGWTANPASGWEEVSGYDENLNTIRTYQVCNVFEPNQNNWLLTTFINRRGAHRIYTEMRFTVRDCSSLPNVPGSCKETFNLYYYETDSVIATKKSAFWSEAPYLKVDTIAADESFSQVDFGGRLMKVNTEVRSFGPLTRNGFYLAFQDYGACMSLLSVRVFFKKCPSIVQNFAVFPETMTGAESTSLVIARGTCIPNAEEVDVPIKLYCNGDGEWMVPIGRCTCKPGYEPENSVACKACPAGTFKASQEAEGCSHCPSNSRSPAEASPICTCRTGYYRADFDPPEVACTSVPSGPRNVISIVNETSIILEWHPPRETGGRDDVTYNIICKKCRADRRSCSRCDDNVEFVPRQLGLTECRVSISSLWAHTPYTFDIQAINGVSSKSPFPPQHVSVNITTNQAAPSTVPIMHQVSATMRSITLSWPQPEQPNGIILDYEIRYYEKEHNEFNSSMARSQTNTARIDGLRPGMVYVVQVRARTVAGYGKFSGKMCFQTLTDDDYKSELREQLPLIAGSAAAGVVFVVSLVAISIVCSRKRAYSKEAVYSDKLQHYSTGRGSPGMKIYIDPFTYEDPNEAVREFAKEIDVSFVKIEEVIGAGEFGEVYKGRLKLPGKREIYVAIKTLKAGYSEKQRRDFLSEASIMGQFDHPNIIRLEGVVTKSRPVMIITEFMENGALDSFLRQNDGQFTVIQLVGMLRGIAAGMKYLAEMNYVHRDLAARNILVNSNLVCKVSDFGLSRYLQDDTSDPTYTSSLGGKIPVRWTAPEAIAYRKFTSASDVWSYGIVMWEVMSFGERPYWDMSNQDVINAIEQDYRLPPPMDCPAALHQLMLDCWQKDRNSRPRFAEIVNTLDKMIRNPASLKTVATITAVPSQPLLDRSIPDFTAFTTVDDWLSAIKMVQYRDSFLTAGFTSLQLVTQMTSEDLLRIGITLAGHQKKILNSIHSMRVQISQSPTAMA
Hck, sequence (P08631 whole entry, looked up): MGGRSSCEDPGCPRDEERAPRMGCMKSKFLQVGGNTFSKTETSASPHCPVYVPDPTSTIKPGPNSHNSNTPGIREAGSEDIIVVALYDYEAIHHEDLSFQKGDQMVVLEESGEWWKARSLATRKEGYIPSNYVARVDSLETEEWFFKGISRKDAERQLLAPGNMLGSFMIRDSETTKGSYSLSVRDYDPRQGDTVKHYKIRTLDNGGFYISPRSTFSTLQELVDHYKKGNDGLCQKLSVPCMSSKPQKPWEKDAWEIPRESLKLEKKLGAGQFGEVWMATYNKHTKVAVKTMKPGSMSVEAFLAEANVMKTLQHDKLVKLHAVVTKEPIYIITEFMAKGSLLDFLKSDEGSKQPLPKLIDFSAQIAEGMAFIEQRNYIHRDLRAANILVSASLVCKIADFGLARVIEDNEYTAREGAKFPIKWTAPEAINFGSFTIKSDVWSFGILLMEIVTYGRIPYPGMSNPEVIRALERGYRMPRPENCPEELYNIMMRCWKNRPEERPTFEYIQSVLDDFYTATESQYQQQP
Fyn, sequence (P06241 whole entry, looked up): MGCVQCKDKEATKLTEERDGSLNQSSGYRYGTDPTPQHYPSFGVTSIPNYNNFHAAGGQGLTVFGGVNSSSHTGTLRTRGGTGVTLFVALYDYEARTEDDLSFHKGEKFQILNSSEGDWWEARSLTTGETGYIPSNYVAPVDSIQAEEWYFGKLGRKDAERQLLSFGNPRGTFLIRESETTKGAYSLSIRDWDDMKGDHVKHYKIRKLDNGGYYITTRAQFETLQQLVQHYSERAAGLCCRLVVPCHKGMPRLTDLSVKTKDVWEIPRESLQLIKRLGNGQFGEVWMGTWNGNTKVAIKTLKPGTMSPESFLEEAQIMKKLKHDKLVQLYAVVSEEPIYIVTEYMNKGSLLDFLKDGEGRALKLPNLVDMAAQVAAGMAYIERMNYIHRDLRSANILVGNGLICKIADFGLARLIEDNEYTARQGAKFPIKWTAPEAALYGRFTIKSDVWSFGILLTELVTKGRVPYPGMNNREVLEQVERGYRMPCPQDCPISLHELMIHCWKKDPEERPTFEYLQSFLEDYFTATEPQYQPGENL
Grb2 SH2, sequence (P62993 whole entry, looked up): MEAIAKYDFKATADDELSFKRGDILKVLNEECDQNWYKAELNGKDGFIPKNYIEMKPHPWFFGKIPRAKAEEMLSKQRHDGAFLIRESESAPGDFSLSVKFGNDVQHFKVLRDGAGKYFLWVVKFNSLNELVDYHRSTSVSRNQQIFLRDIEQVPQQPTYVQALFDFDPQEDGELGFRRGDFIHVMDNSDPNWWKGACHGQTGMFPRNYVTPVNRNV

As for GHGEEYPAAGA [NOTCH3_Y2221], the phosphorylation enrichment in series [1] is 0.426; in series [2], 0.433; in series [3], 0.821; in series [4] it was 0.41; in series [5], 0.431; in series [6] it was 0.719. The phosphorylation enrichment in series [7] came out at 0.469; in [8], 0.413; in [9], 0.549; in series [10] it was 0.682; in series [11], 0.377; in [12], 0.379. The phosphorylation enrichment in series [13] is 0.327. Further, the SH2 binding enrichment in [14] came out at 0.384; in series [15], 0.888; in [16], 0.626.
For the sequence LDPDSYNVFEN [FOXC1_Y159_M161V], the phosphorylation enrichment in [1] came to 0.643; in [2], 0.742; in [3] it was 2.2; in series [4], 0.728; in series [5], 0.613; in [6] it was 1.31. Besides, the phosphorylation enrichment in series [7] turned out to be 1.93; in [8] it was 0.527; in series [9], 2.3; in series [10] it was 2.1; in series [11] it was 0.915; in series [12], 1.04. The phosphorylation enrichment in series [13] worked out at 0.703. Besides, the SH2 binding enrichment in series [14] came out at 1.59; in series [15], 0.74; in series [16] it was 0.752.
Regarding VDTPMYATMQR [TPO_Y55_A53P], the phosphorylation enrichment in series [1] was 3.58; in series [2], 0.706; in series [3], 0.942; in series [4] it was 1.1; in series [5] it was 5.46; in series [6] it was 0.684. Moreover, the phosphorylation enrichment was 2.11 in series [7]; 0.52 in [8]; 0.593 in series [9]; 0.826 in series [10]; 3.3 in [11]; 1.81 in series [12]. The phosphorylation enrichment in series [13] was found to be 0.838. The SH2 binding enrichment was 2.09 in series [14], 0.803 in series [15] and 1.27 in series [16].
In the case of TDLAYYLVRKG [ASL_Y376], the phosphorylation enrichment came out at 0.539 in series [1]; 0.48 in series [2]; 0.962 in series [3]; 0.468 in [4]; 0.716 in [5]; 2.42 in series [6]. The phosphorylation enrichment was 0.672 in series [7]; 3.17 in [8]; 2.05 in series [9]; 0.963 in series [10]; 0.783 in series [11]; 0.684 in series [12]. Moreover, the phosphorylation enrichment in [13] amounted to 0.629. Besides, the SH2 binding enrichment in series [14] was 0.795; in [15], 0.95; in series [16], 1.41.
In the case of GPIIRYDLGGA [CYP11B1_Y81_F79I], the phosphorylation enrichment was found to be 0.412 in series [1]; 0.396 in series [2]; 0.723 in series [3]; 0.585 in [4]; 0.384 in series [5]; 0.498 in [6]. For the same sequence, the phosphorylation enrichment in [7] was determined as 0.518; in series [8], 0.617; in series [9], 0.626; in series [10], 0.648; in series [11], 0.405; in series [12], 0.477. Further, in [13], the phosphorylation enrichment is 0.366. In addition, the SH2 binding enrichment is 0.495 in series [14], 0.645 in [15] and 0.851 in series [16].
With RRNTFYASIAK [ACADM_Y353_YF], the phosphorylation enrichment amounted to 0.482 in series [1]; 0.367 in [2]; 0.622 in series [3]; 0.453 in series [4]; 0.463 in series [5]; 0.583 in [6]. The phosphorylation enrichment is 0.509 in series [7]; 0.442 in series [8]; 0.511 in series [9]; 0.605 in series [10]; 0.638 in series [11]; 0.474 in series [12]. In series [13], the phosphorylation enrichment turned out to be 0.455. Besides, the SH2 binding enrichment in series [14] was 1.09; in series [15], 0.772; in [16] it was 1.68.
For AGTILYHAHLD [ASS1_Y291], the phosphorylation enrichment in [1] was 0.479; in series [2], 0.398; in series [3], 0.703; in series [4] it was 0.526; in series [5] it was 0.523; in series [6] it was 0.497. Also, the phosphorylation enrichment in series [7] was 0.509; in series [8], 0.535; in series [9], 0.495; in series [10], 0.591; in [11], 0.451; in [12], 0.561. Moreover, the phosphorylation enrichment in [13] was 0.78. Also, the figures for the SH2 binding enrichment in series [14], in [15] and in [16] were 0.477, 0.949 and 0.74, respectively.
For TTSQPYRCLCS [USH2A_Y534], the phosphorylation enrichment worked out at 0.557 in series [1]; 0.509 in series [2]; 0.941 in series [3]; 0.473 in series [4]; 0.523 in series [5]; 0.707 in series [6]. Besides, the phosphorylation enrichment in series [7] came out at 1.07; in [8] it was 0.552; in series [9], 0.931; in [10] it was 0.951; in series [11] it was 0.562; in series [12], 0.781. For the same sequence, the phosphorylation enrichment in [13] came out at 0.587. In addition, the SH2 binding enrichment in series [14] was determined as 0.653; in series [15], 1.24; in series [16], 0.992.
